Drawing on patent US20160053274, this text covers activity for 5 sequences.

Holding throughout (test): cell_activity
The subject of data set [1] is TALENbar86 monomer 2 (artificial). The conditions noted are these: tobacco protoplasts, as pair with monomer 1, 13 nt spacer, foreign DNA pTIB235; printed half-site differs from full site as printed (AGCACGGTCAACTTCCCT).
Data set [2] deals with TALENbar334 monomer 1 (artificial). The note with it: tobacco protoplasts, as pair with monomer 2, 12 nt spacer, foreign DNA pTIB235; 94.35 with pTCV224, 94.09 with pTCV225.
The test system of data set [3] is TALENbar86 monomer 1 (artificial). The note with it: tobacco protoplasts, as pair with monomer 2, 13 nt spacer, foreign DNA pTIB235; 19.6 with pTCV224, 25.6 with pTCV225.
In data set [4] the test system is bar meganuclease (cleaving at bar position 479) (artificial). The note with it: tobacco protoplasts, targeted insertion with repair DNA pTCV225 (3/164 calli).
Data set [5] deals with TALENbar334 monomer 2 (artificial). The conditions noted are these: tobacco protoplasts, as pair with monomer 1, 12 nt spacer, foreign DNA pTIB235; 94.35 with pTCV224, 94.09 with pTCV225.

Consider “ACGGAAGTTGACCGTGCT (double strand) [bar86 half-site 2]”, for which the activity in data set [1] came to 6.25 % mutation. In turn, “CCACGCTCTACACCCACC (double strand) [bar334 half-site 1]” returned an activity in data set [2] of 76 % mutation. In data set [3], “CTGCACCATCGTCAACCA (double strand) [bar86 half-site 1]” came in with an activity of 6.25 % mutation. In data set [4], “GGGAACTGGCATGACGTGGGTTTC (double strand) [bar meganuclease site]” displayed an activity of 1.8 % TSI. In the case of “TGAAGCCCTGTGCCTCCA (double strand) [bar334 half-site 2]”, the activity in data set [5] worked out at 76 % mutation.
